For series [1], the system named is neopine formation in the presence of COR. Nature of the series: Neopine formation with PR10-8 mutant proteins, NISO or NISO mutants and COR (FIG. 13). It is filed as biochemical. The method, then: Neopine formation in the presence of the mutant proteins and COR was assessed, and compared to neopine formation using COR and NISOΔ1, NISOΔ2, and NISOΔ3. In the absence of NISO, neopine constitutes about 25% of the reaction product. Neopine formation can be reduced to 5% or less in the presence of NISO. Consistent with the previous experiment, in the presence of NISOΔ1, NISOΔ2, or NISOΔ3 an increase in neopine is observed, relative to wildtype NISO. […] Thus the relatively modest sequence differences between Domains Δl, Δ2, Δ3, Δ4 of NISO and PR10-8 nevertheless are significant with respect to the ability to suppress neopine production in the presence of COR.

Series [2] concerns Yeast strains with chromosomally integrated T6ODM. Nature of the series: Hydrocodone production in yeast strains with chromosomally integrated T6ODM (FIG. 14). Format: cell-based.
Series [3] concerns codeinone and morphinone substrates. Nature of the series: COR-B assay alone or together with NISO, substrate conversion and products formed (FIG. 16). To be noted: 20 mins. Format: biochemical. The method, then: Assay mixtures containing purified recombinant COR-B (~0.1 µg) alone, or purified recombinant COR-B (~0.1 µg) together with purified recombinant NISO (0.196 µg) (1:4 molar ratio), Na-ascorbate cofactor, and 1 mM NADPH, were incubated for 20 mins using one of the following substrates: codeine, neopine, morphine, neopmorphine, codeinone and morphinone. The percentages substrate conversion and products formed were determined.

Another series concerns thebaine. As to the kind of experiment: NISO-coupled T6ODM-COR-CODM assay with thebaine as substrate, LC-MS/MS. Format: biochemical. The note with it: CODM plus NISO vs without NISO, 100 µM thebaine, 30° C., 1 hr.
Where [4] appears, read: COR-B and NISO together vs COR-B alone.

B1: PR10-8: PR-polypeptide of Papaver somniferum similar to NISO, SEQ.ID NO: 38 (protein, listed as Papaver somniferum)
chain: MAHHGVSGLVGKLVTQLEVNCDADEFYKIWKHHEEVPKAVSHFFPAVKVVKGDGLVSGCIKEWHYILEGKAMSAMEETTHNDETRTLHHQVVEGEVMKDYKAIASIIQVNPNPNGHGSIVTWSIEYEKMNEDSPTPFAYLEFFHQNIIDMNSHLYVGSDSHLHVDE
For the molecule B1, the “ability to reduce neopine production” value in series [1] is reported as “unable to reduce neopine production”.

B2: MorB: morphine reductase from Pseudomonas putida M10, SEQ.ID NO: 22, expressed in yeast (protein, listed as Papaver somniferum)
chain: MPDTSFSNPGLFTPLQLGSLSLPNRVIMAPLTRSRTPDSVPGRLQQIYYGQRASAGLIISEATNISPTARGYVYTPGIWTDAQEAGWKGVVEAVHAKGGRIALQLWHVGRVSHELVQPDGQQPVAPSALKAEGAECFVEFEDGTAGLHPTSTPRALETDEIPGIVEDYRQAAQRAKRAGFDMVEVHAANACLPNQFLATGTNRRTDQYGGSIENRARFPLEVVDAVAEVFGPERVGIRLTPFLELFGLTDDEPEAMAFYLAGELDRRGLAYLHFNEPDWIGGDITYPEGFREQMRQRFKGGLIYCGNYDAGRAQARLDDNTADAVAFGRPFIANPDLPERFRLGAALNEPDPSTFYGGAEVGYTDYPFLDNGHDRLG
Consider B2, for which the production of hydrocodone entry in series [2] is given as “trace amounts”.

B3: NISO: neopinone isomerase polypeptide of Papaver somniferum, SEQ.ID NO: 2; recombinant, His6-tagged, from E. coli (protein, listed as Papaver somniferum)
chain: MDSVSAALVFHSSIYLCAMAHHGVSGLVGKIVTELEVNCNADEFYKILKRDEDVPRAVSDLFPPVKIAKGDGLVSGCIKEWDCVLDGKAMSGKEETTHNDETRTLRHRELEGDLMKDYKKFDSIIEVNPKPNGHGSIVTWSIEYEKMNEDSPAPFAYLASFHQNVVEVDSHLCLSE
modifications: His6 tag
notes: recombinant, His6-tagged, from E. coli
With B3, in series [3] (setting [4]), the “product codeine formed from codeinone substrate” value is recorded as “substantial increase” and the “product morphine formed from morphinone substrate” value is given as “substantial increase”. In addition, the “codeinone substrate turnover increase” value in series [3] (COR-B plus NISO (1:4 molar ratio) vs COR-B alone) was ~2 fold. Moreover, in the series with thebaine, the codeine production result is reported as “increases substantially”, the morphine production result is “increases” and the neopine production entry is recorded as “reduced”. In series [1] (about 25% in the absence of NISO), the “neopine formation (share of the reaction product)” value is given as ≤ 5%.
